Assay [1] concerns the target T1, monomeric synthetic Abeta (UniProt P05067 672-713).
T1 construct: also called monomeric Abeta; linear monomeric Abeta peptide
Description: ELISA, monomeric synthetic Abeta coated on the plate, antibody titrated.

In assay [2] the target is T2, recombinant human NI-101.11 antibody.
T2 construct: also called human antibody against brain beta-amyloid
The assay is described as follows: competition ELISA: NI-101.11 (1nM) pre-incubated with the peptide at 10 nM to 10 µM, then binding to the coated plate (the coat is not named) [right panel].

Assay [3] addresses T3, synthetic Abeta1-42 peptide (UniProt P05067 672-713).
T3 construct: domain: Abeta1-42; also called linear synthetic Abeta1-42 monomers
The assay is described as follows: ELISA, synthetic Abeta1-42 peptide coated on the plate.

For assay [4], the target named is T4, artificial amyloid fibrils prepared from synthetic Abeta1-42 peptides (UniProt P05067 672-713).
T4 construct: domain: Abeta1-42; Fibrillar assembly of many copies; also called Abeta1-42 fibrils; synthetic Abeta fibrils
Description: ELISA, fibrillar Abeta1-42 coated on the plate, antibody 0.1pM to 100nM [right panel].

B1: control antibody 22C4 (antibody, V domains shown)
VH: QVQLQQSGPELVKPGASVKISCKTSGYTFTEYTMHWVKQSHGKSLEWIGGVNPYNDNTSYIRKLQGKVTLTVDRSSSTAYMELRSLTSEDSAVYFCARYGGLRPYYFPMDFWGQGTSVTVSS
VL: DIVLTQSPAILSASPGEKVTLTCRASSSVNYMHWYQQKPGSPPKAWIYATSNLASGVPDRFSASGSGTSYSLTISRVEAEDAATYYCQQWRTNPPTFGAGTKLELK
Take B1: in assay [1], the “EC50 (read off the curve)” value was around 1 nM.

B2: linear synthetic N-terminal Abeta-derived polypeptide representing positions 1 to 16 (peptide)
peptide: DAEFRHDSGYEVHHQK
notes: domain: Abeta1-16; the numbers count on the Abeta peptide; also called Abeta1-16; monomeric Abeta1-16
As to B2, the binding result in assay [2] is given as “no binding (tested: 10 µM)”.

B3: recombinant NI-101.12 (antibody, V domains shown)
VH: EVQLVESGPGLVKPAETLSLTCTVSGGSIRSGSICWYWIRQPPGKGLEWIGYFCYSGATFYTPSLRGRLTISVDASKNQLSLSLSSVTAADTAVYYCARRAGENSGGIEPYYGMDVWGQGTTVTVSS
VL: EIVLTQSPSSLSASIGDRVTITCRASESINKYVNWYQQKPGKAPKLLIYAASSLQSGAPSRVSGSGFGRDFSLTISGLQAEDFGAYFCQQSYSAPYTFGQGTKVEIKR
With B3, the binding result in assay [3] is “binds”.

B4: recombinant human antibody NI-101.13A (antibody, V domains shown)
VH: QVQLQESGPGLVKPSETLSLTCTVSGGSISRRSYYWGWIRQSPGKGLEWSGSIHYSGSTYYNPSLKSRVTISVDTSKNQFSLKLSSVTAADTAVYYCARSRWGSSWVFDYWGQGTLVTVSS
VL: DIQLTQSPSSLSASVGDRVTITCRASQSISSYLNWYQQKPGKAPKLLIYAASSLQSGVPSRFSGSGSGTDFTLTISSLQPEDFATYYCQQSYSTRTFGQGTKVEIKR
For B4, the binding result in assay [4] is “binds”.

B5: recombinant human antibody NI-101.13B (antibody, V domains shown)
VH: QVQLQESGPGLVKPSETLSLTCTVSGGSISRRSYYWGWIRQSPGKGLEWSGSIHYSGSTYYNPSLKSRVTISVDTSKNQFSLKLSSVTAADTAVYYCARSRWGSSWVFDYWGQGTLVTVSS
VL: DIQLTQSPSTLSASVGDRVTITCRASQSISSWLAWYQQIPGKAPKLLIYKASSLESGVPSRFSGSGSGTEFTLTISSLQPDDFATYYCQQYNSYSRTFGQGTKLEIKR
Consider B5, for which, in assay [4], the binding result was “binds”.

The values above are taken from US20190263896A1 (UNIVERSITY OF ZURICH, published 2019).
